The data set “crystal structure” concerns the molecule itself. As to the kind of experiment: crystal structure.
Data set [1] addresses T1, fibrinogen fragment D (human, UniProt P02671 130-216; P02675 164-491; P02679 114-432).
T1 sequence 1: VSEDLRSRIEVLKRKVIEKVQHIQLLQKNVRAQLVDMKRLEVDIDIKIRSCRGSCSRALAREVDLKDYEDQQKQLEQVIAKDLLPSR
T1 sequence 2: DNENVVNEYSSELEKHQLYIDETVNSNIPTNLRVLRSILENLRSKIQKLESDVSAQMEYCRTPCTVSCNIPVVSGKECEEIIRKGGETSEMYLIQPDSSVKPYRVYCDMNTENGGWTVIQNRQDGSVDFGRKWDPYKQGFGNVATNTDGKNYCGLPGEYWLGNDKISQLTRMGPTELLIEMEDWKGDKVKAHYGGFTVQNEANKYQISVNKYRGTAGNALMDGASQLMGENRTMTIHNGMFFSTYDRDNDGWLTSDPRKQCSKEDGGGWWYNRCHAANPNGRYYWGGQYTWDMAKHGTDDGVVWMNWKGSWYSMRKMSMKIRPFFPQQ
T1 sequence 3: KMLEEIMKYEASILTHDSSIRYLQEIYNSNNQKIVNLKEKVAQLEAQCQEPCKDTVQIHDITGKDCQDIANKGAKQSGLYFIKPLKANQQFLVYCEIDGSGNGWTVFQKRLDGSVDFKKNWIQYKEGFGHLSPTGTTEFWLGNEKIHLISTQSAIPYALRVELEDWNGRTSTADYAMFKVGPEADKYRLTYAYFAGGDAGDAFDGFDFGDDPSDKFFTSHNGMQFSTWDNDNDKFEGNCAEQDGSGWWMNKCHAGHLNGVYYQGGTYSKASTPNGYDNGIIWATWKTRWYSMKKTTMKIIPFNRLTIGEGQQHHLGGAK
As to the kind of experiment: crystal structure.

In data set [2] the target is T1, fibrinogen fragment D. Nature of the data set: pull-down.

By stoichiometry N is commonly meant the number of molecules, sites or subunits per partner or assembly.

B1: M1^BC1 (M1 fragment with B-repeats, S-region and first C-repeat) (domain or fragment, UniProt Q99XV0 128-263, looked up)
chain: WDRQRLEKELEEKKEALELAIDQASRDYHRATALEKELEEKKKALELAIDQASQDYNRANVLEKELETITREQEINRNLLGNAKLELDQLSSEKEQLTIEKAKLEEEKQISDASRQSLRRDLDASREAKKQVEKDL
Turning to B1, in “crystal structure”, the “stoichiometry N” value turned out to be 2.

B2: selenomethionine-substituted M1^BC1(I148M) (domain or fragment, UniProt Q99XV0 128-263, looked up)
chain: WDRQRLEKELEEKKEALELAMDQASRDYHRATALEKELEEKKKALELAIDQASQDYNRANVLEKELETITREQEINRNLLGNAKLELDQLSSEKEQLTIEKAKLEEEKQISDASRQSLRRDLDASREAKKQVEKDL
modifications: selenomethionine-substituted
On to B2, for which the binding result with fibrinogen fragment D [1] is “binds”.

B3: M1 B2C (residues 162-189 deleted and inserted after C-terminal residue 453) (natural protein, UniProt Q99XV0 42-453, looked up)
chain: NGDGNPREVIEDLAANNPAIQNIRLRYENKDLKARLENAMEVAGRDFKRAEELEKAKQALEDQRKDLETKLKELQQDYDLAKESTSWDRQRLEKELEEKKEALELAIDQASRDYHRATALEKELETITREQEINRNLLGNAKLELDQLSSEKEQLTIEKAKLEEEKQISDASRQSLRRDLDASREAKKQVEKDLANLTAELDKVKEDKQISDASRQGLRRDLDASREAKKQVEKDLANLTAELDKVKEEKQISDASRQGLRRDLDASREAKKQVEKALEEANSKLAALEKLNKELEESKKLTEKEKAELQAKLEAEAKALKEQLAKQAEELAKLRAGKASDSQTPDTKPGNKAVPGKGQAPQAGTKPNQNKAPMKETKRQLPSTEKELEEKKKALELAIDQASQDYNRANVL
Take B3: in the data set with fibrinogen fragment D [2], the binding result was “binds”.
